In the supplement of paper PMC9170038:

Assays:
MS2 coat protein [1] = experiment: apparent KD of MS2 coat protein, switch ON state; designed switch direction (-1 OFF switch, 1 ON switch): 1; higher = weaker reporter binding; settings: FMN input: 0 or 200 uM; Eterna round: R93 (includes R88 designs)
Outline: (§1)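 Normalised binding curves from single clusters were fitted, and the median fit for each design is given as apparent KD. The clusters held designed RNA switches transcribed on-chip from Illumina sequencing clusters. These were titrated with SNAP-549-labelled MS2 coat protein (twofold steps from 0.7 or 1.5 nM to 3 µM, 0.8–1.5 h to 10–20 min per step) in 100 mM Tris-HCl pH 7.5, 80 mM KCl, 4 mM MgCl2, without or with constant ligand.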

MS2 coat protein [2] = experiment: apparent KD of MS2 coat protein, switch OFF state (with FMN for OFF switches, without FMN for ON switches); designed switch direction (-1 OFF switch, 1 ON switch): 1; higher = weaker reporter binding; settings: FMN input: 0 or 200 uM; Eterna round: R93 (includes R88 designs)
Outline: as §1

| Sequence | apparent KD of MS2 coat protein (MS2 coat protein [1]) | apparent KD of MS2 coat protein (MS2 coat protein [2]) |
| --- | --- | --- |
| AAAAUAAAAAGGUAGGAUAUGGGUAAGUCUACAUGAGGAUCACCCAUGUAAUAAAAAGAAAAAAACCAGAAGGACCAAAAUAAAA [72%, More Wateronthemoon, 11] | 20.2 nM | 50.1 nM |
| AAAAUAAAAUAAAAGGAUAUAAAAUAAAAAACAUGAGGAUCACCCAUGUAAAAACAUGGGUGAAAAAAGAAGGAAAAAUAAAAAA [SS2: 70 No MS2] | 36.7 nM | 1.74 nM |
| AAAAUAAAAUAAAAGGAUAUAAAGAUAUAUACAUGAGGAUCACCCAUGUAUAUAUCAAUAAAAUAAAAGAAGGAAUAAAAAUAAA [SS2 510: MS2 10] | 14.8 nM | 18 nM |
| AAAAUACAUGAGGAUCACCCAUGUGAAAAUAUGGAAGGAUAUCAUGGAAAAAAAAAAACAUGAGAAGGUCCAAAAA [SS! 1 MT 9] | 22 nM | 123 nM |
| AAAAUACAUGAGGAUCACCCAUGUGAAAAUAUGGGAGGAUAUACAAACACGAAAGUGAAAGUAGAAGGCCUAAAAA [SS! MT 15] | 51.6 nM | 231 nM |
| AAAAUACAUGAGGAUCACCCAUGUGAAAAUAUGGGAGGAUAUACCGAAAAAAAAAAAACGGUAGAAGGCCCUAAAA [SS! 1 MT 6] | 17.9 nM | 41.6 nM |
| AAAAUACAUGAGGAUCACCCAUGUGAGUCGAACGCAGGAUAUGCCCGUUGAAAAGGGCGGGCAGAAGGGUGCCGAA [SameState1-IV] | 34.4 nM | 61.7 nM |
| AAAAUAUAAAGAGAGGAUAUCCAAAGAACCACAUGAGGAUCACCCAUGUAAAGAAAGAAUAAGUGGGAGAAGGCUCAAAUAAUAA [Designing denovo 24] | 27.5 nM | 99.8 nM |
| AAAAUAUAAAGGAAGGAUAUCCAAAGGACUACAUGAGGAUCACCCAUGUAAAGAAAGAAUAAAUGGGAGAAGGUCCAAAUAAUAA [Designing denovo 32] | 44 nM | 180 nM |
| AAACCACAUGAGGAUCACCCAUGUAAAAAUAACGCAGGAUAUGGAAACACGAAAGUGAAACCAGAAGGGUGAAAAG [77%, Mat - Mod of Eli, 15] | 24.5 nM | 33 nM |
| AAACCACAUGAGGAUCACCCAUGUAAGAUAUACAUAGGAUAUGCGAAAAGAAACAAAGAAGCAGAAGGGUGGAAAA [75%, Ex sub1, 15] | 100 nM | 54.9 nM |
| AAACCACAUGAGGAUCACCCAUGUAGAAAUAUGGGAGGAUAUACAAACACGAAAGUGAAAGUAGAAGGCCUAAAAG [77%, Mat - Mod of Eli, 7] | 17.7 nM | 118 nM |
| AAAGACACGGUGCAGGAUAUAGUAAUAGUCACAUGAGGAUCACCCAUGUUCUUUUAUAAGAACGAUUAGAAGGGCGGUGAAAAAA [SameState2 Malc#10] | 182 nM | 92.6 nM |
| AAAGACACGGUGCAGGAUAUAUUAAUAGUCACAUGAGGAUCACCCAUGUUCAUUUAUAUGAACGAGUAGAAGGGCGGUGAAAAAA [SameState2 Malc#8] | 174 nM | 110 nM |
| AAAGACAUAGUGCAGGAUAUGGUAAUAGUCACAUGAGGAUCACCCAUGUUCUUUUAUAAGAACGAUCAGAAGGGCGGUAAAAAAA [SameState2 Malc#13] | 359 nM | 666 nM |
| AAAGACAUAGUUCAGGAUAUGGUAAUAGUCACAUGAGGAUCACCCAUGUUCUUUUAUAAGAACGAUCAGAAGGGAGGUAAAAAAA [SameState2 Malc#14] | 151 nM | 282 nM |
| AAAGACGUGGUGUAGGAUAUACUAAUAGUCACAUGAGGAUCACCCAUGUUCAUAUAUAUGAACGAGUAGAAGGACGACGAAAAAA [SameState2 Malc#2] | 70.4 nM | 95.8 nM |
| AAAUAAAAGACUAAGGAUAUGUCGCAUGACACAUGAGGAUCACCCAUGUGGUAACACAGAGGGUGGCAGAAGGUAGUCAAAAAAC [Mod 1 of Pariah 6 (Round1) by Hyphema] | 45.8 nM | 446 nM |
| AAAUAAAUAAGAGAGGAUAUGUCAGAGAAAACAUGAGGAUCACCCAUGUAAUAAUAAAAAGGGUGACAGAAGGCUCAAAACAAAC [Hyphema modified] | 32.3 nM | 58.5 nM |
| AAAUAAAUGACUAAGGAUAUAUCGAAGAAGACAUGAGGAUCACCCAUGUAAUAAUAAAAAGGGUGGUAGAAGGUAGUCAACAAAC [Mod 6 of Pariah 4 by Hyphema in Round 1] | 156 nM | 233 nM |

| Sequence | apparent KD of MS2 coat protein (MS2 coat protein [1]) | apparent KD of MS2 coat protein (MS2 coat protein [2]) |
| --- | --- | --- |
| AAAUAAAUGACUGAGGAUAUAUCGAUGAAUACAUGAGGAUCACCCAUGUGAUAAUAAAAAGGGUGGUAGAAGGUAGUCAACAAAC [Mod 13 of Pariah 4 by Hyphema in Round 1] | 95.9 nM | 71.9 nM |
| AAAUAAAUGACUGAGGAUAUGUCGAAGAAAACAUGAGGAUCACCCAUGUGAUAAUAAAAAGGGUGAUAGAAGGUAGUCAACAAAC [Mod 10 of Pariah 4 by Hyphema in Round 1] | 323 nM | 262 nM |
| AAAUAACAUGAGGAUCACCCAUGUCAAAUAAAUCGAGGAUAUGGGCCCGAGUUCCGGGAGCCAGAAGGCGAAAAGA [Ceusrete] | 28.9 nM | 51.7 nM |
| AAAUAACAUGAGGAUCACCCAUGUCAAAUAAAUCGAGGAUAUGGGCCCGGGUUCCGGAAGCCAGAAGGCGAAAAGA [Diareslera] | 24.9 nM | 55.1 nM |
| AAAUAACAUGAGGAUCACCCAUGUUACAACAUUACAGGAUAUGUGGGUGAAAAUAGCAUGACAGAAGGGUACUGUA [SameState1 Malc#34] | 479 nM | 393 nM |
| AAAUAACAUGAGGAUCACCCAUGUUGCAACGGUUGAGGAUAUGUGGGUGAAAAUAGCAUGGCAGAAGGCGAGUGUA [SameState1 Malc#27] | 58.1 nM | 31.9 nM |
| AAAUGACAUGAGGAUCACCCAUGUCCACCAAACGGAGGAUAUUGGGCGGCAAAACGUUGUUAAGAAGGCCGAAAAA [SS1-1.1] | 60 nM | 28 nM |
| AACAAACAUGAGGAUCACCCAUGUCAAACAUACCAAGGAUAUGGGAGACGAGACUCGUCACCAGAAGGUGGAAAUU [Maatce] | 106 nM | 123 nM |
| AACAACAAUAUGAAGGAUAUCCACAACAAGACAUGAGGAUCACCCAUGUAAACAAAGAACAUACAGGAGAAGGUCAAGGGUGAAA [JR_SS002_Sub1203] | 56.2 nM | 39 nM |
| AACAAUCUAUCUGAGGAUAUCAUGUCAAAGACAUGAGGAUCACCCAUGUGCAGGAAAACUGCAUAUGAGAAGGCAGAUAGAUUGA [SS2 :P - 599] | 217 nM | 130 nM |
| AACAAUCUAUCUGAGGAUAUGUGUCAAAAGACAUGAGGAUCACCCAUGUAAAAACAUGAAAAGACACAGAAGGCAGAUAGAUUGA [SS2: 1153] | 21.4 nM | 44.2 nM |
| AACAAUCUAUCUGAGGAUAUGUGUCGAAAGACAUGAGGAUCACCCAUGUGAAAACAUGAAAAGACACAGAAGGCAGAUAGAUUGA [SS2: 1154] | 40.2 nM | 41.5 nM |
| AACAGACAUGAGGAUCACCCAUGUAGAAUUAUGGGAGGAUAUACAAAGACGAGAGUCAGAGUAGAAGGCCUAGGAC [salish99-ss1-163] | 20 nM | 71.2 nM |
| AACAUACAUGAGGAUCACCCAUGUUCCGGCAGGGCAGGAUAUCCAUCGAAAGUGUUAUAAGGAGAAGGGCCAUAAA [JR_SS001_Sub013] | 31.7 nM | 93.3 nM |
| AACAUACAUGAGGAUCACCCAUGUUUAUAAAAACAAGGAUAUAUAAGAACAAACAAACAAAUAGAAGGUGUAAAAA [Default title] | 23.4 nM | 17.2 nM |
| AACCAACAUGAGGAUCACCCAUGUCAACCCAAGGCAGGAUAUGCGAGAAUAACAAUGGGAGCAGAAGGGCCGACCU [ss1-3] | 40 nM | 53.4 nM |
| AACCGCGCUAUACAGGAUAUCACAAUAUCGACAUGAGGAUCACCCAUGUGACUGGCACCAGUCGGUGAGAAGGGUGAAGUGCGGC [Tilemage] | 149 nM | 238 nM |
| AACUAACAUGAGGAUCACCCAUGUAUUCAAACAUGAGGAUAUAUAACACAUCAUCGACAGAUAGAAGGCAUAAAUA [JR_SS001_Sub1205] | 89.6 nM | 78.5 nM |
| AACUAACAUGAGGAUCACCCAUGUUGCAGCGGUUGAGGAUAUGUGGGUGAAAAUAGCAUGGCAGAAGGCGAGUGUA [SameState1 Malc#25] | 68.8 nM | 52.2 nM |
